The test system of assay [1] is cyclin D1. Nature of the assay: Cyclin D1 immunoblot in HC11 cells. The assay is classed as cell-based, mouse. The conditions noted are these: control (C-HC11) cells treated 6 hr. How it is done: Briefly, WCL was prepared from HC11, Wnt1- and Wnt5a-expressing HC11 cells and 50 μg immunoblotted essentially as described above using commercially available antibodies against cyclin D1 (NovaCastra) or cyclin D2 (SantaCruz). Both Wnt1- and Wnt5a-HC11 cells express higher levels of cyclin D1, in comparison to HC11 cells. In addition, Wnt1-HC11 cells but not C- or Wnt5a-HC11 cells express cyclin D2.
C-HC11 cells were also treated 6 hrs with CM from Wnt-HC11 cells. WCL were prepared and 50 μg was immunoblotted for Cyclin D1 or Cyclin D2. Similar to the results with the Wnt-HC11 cell lines, both Wnts (CM) stimulated Cyclin D1 expression, while only Wnt1 enhanced cyclin D2 levels.
To assess the contribution of Wnt-transactivated ErbB1 on cyclin D1 and D2 expression, C- and Wnt-HC11 cells were treated 6 hr with PKI166 or CGS27023A or EGF. […] In contrast, the ErbB1 inhibitor had no effect on cyclin D2 levels. […] Thus, cyclin D1 and cyclin D2 are differentially controlled. Both Wnt1 and Wnt5a transactivate ErbB1, which results in increased expression of cyclin D1; in contrast cyclinD2 is only elevated in Wnt1 expressing cells and this is independent of ErbB1 activity.
Background: A western blot detects proteins with antibodies after separation by electrophoresis.

For assay [2], the system named is ERK1/2. Nature of the assay: phospho-ERK1/2 immunoblot (MAPK activity) in HC11 cells. The assay is classed as cell-based, mouse. The source says:
The MAPK and PI3K pathways are major signaling cascades downstream of activated ErbB receptors (Olayioye et al., 2000). Antisera specific for the active, phosphorylated forms of ERK1/2 and PKB, the major kinases on the respective pathways, were used to probe for their activity. 50 micrograms of WCL were immunoblotted essentially as described above with the exception that a phospho-ERK1/2 antibody (commercially available, New England Biolabs) or a phosphoPKB antibody was used. Membranes were stripped and reprobed for ERK1/2 (anti-p44/42 ERK, New England Biolabs).
Briefly, conditioned media (CM) from Wnt-HC11 cells prepared as described in Example 1 was tested for its effect on ErbB1 and MAPK activity, essentially as described above. Treatment of C-HC11 cells for 10 min with Wnt1- and Wnt5a-CM stimulated phospho-ERK1/2 levels 5-6-fold, whereas CM from C-HC11 cells had no effect.
To rule out the potential involvement of ErbB1 ligands in mediating the effects of Wnt-containing CM, we used secreted Frizzled-related protein-1 (sFRP-1), which binds Wnt preventing it from binding Fz (Uren et al., 2000). […]
The metalloproteinase inhibitors were next tested in the presence of Wnt-containing CM. […] Phospho-ERK1/2 levels were determined as above. […]

The target of assay [3] is T1, ErbB1 (Mus musculus, UniProt Q01279).
T1 construct: ErbB1 was immunoprecipitated from 500 micrograms WCL and immunoblotted with a phosphotyrosine specific antibody; endogenous in cells; host or cells: HC11 mammary cells (C-HC11, Wnt1-HC11, Wnt5a-HC11)
Put plainly: ErbB1 immunoprecipitation and phosphotyrosine immunoblot in HC11 cells. The assay is classed as cell-based. As to conditions: HC11 cells, 100 ng/ml EGF for 10 minutes. How it is done:
ErbB1 is transactivated by many classes of membrane proteins (Carpenter, 1999; Gschwind et al., 2001). However, Wnt/VFz-mediated activation of ErbB1 has not been reported previously. Since ErbB1 tyrosine phosphorylation is an essential step in ErbB1 activation, we examined whether Wnt can activate ErbB1, by immunoprecipitating the receptor form Wnt/HC11 cells and performing a Westem analysis with phosphotyrosine specific antiserum. For these experiments HC11 cells were grown over night in medium without EGF. As a control for ErbB1 activation, C-HC 11 and Wnt-HC11 cells were treated for 10 minutes with 100 ng/ml EGF. An ErbB1 selective kinase inhibitor PKI166 (Traxler et al., 2001) was also used in some experiments. For this, the cells were pretreated 1 hr with 5 microM PKI 166, or left untreated, before preparing WCLs, essentially as described in Example 1.
ErbB1 was immunoprecipitated from 500 micrograms WCL and immunoblotted with a phosphotyrosine specific antibody (anti-phosphotyrosine AG10, Upstate Biotechnology) essentially as described previously (Lane et al., 2000). Membranes were stripped by placing them in 2% SDS, 62.5 mM Tris pH 6.8, 100 mM beta-mercaptoethanol at 60° C. for 30 min. Stripped membranes were reprobed for ErbB1 using a commercially available antibody (antibody 1005,Santa Cruz Biotechnology). […]

B1: EGF: an ErbB1 activator, used as control for ErbB1 activation (protein, UniProt P01133 23-1207, looked up)
Pro-epidermal growth factor: PQHWSCPEGTLAGNGNSTCVGPAPFLIFSHGNSIFRIDTEGTNYEQLVVDAGVSVIMDFHYNEKRIYWVDLERQLLQRVFLNGSRQERVCNIEKNVSGMAINWINEEVIWSNQQEGIITVTDMKGNNSHILLSALKYPANVAVDPVERFIFWSSEVAGSLYRADLDGVGVKALLETSEKITAVSLDVLDKRLFWIQYNREGSNSLICSCDYDGGSVHISKHPTQHNLFAMSLFGDRIFYSTWKMKTIWIANKHTGKDMVRINLHSSFVPLGELKVVHPLAQPKAEDDTWEPEQKLCKLRKGNCSSTVCGQDLQSHLCMCAEGYALSRDRKYCEDVNECAFWNHGCTLGCKNTPGSYYCTCPVGFVLLPDGKRCHQLVSCPRNVSECSHDCVLTSEGPLCFCPEGSVLERDGKTCSGCSSPDNGGCSQLCVPLSPVSWECDCFPGYDLQLDEKSCAASGPQPFLLFANSQDIRHMHFDGTDYGTLLSQQMGMVYALDHDPVENKIYFAHTALKWIERANMDGSQRERLIEEGVDVPEGLAVDWIGRRFYWTDRGKSLIGRSDLNGKRSKIITKENISQPRGIAVHPMAKRLFWTDTGINPRIESSSLQGLGRLVIASSDLIWPSGITIDFLTDKLYWCDAKQSVIEMANLDGSKRRRLTQNDVGHPFAVAVFEDYVWFSDWAMPSVMRVNKRTGKDRVRLQGSMLKPSSLVVVHPLAKPGADPCLYQNGGCEHICKKRLGTAWCSCREGFMKASDGKTCLALDGHQLLAGGEVDLKNQVTPLDILSKTRVSEDNITESQHMLVAEIMVSDQDDCAPVGCSMYARCISEGEDATCQCLKGFAGDGKLCSDIDECEMGVPVCPPASSKCINTEGGYVCRCSEGYQGDGIHCLDIDECQLGEHSCGENASCTNTEGGYTCMCAGRLSEPGLICPDSTPPPHLREDDHHYSVRNSDSECPLSHDGYCLHDGVCMYIEALDKYACNCVVGYIGERCQYRDLKWWELRHAGHGQQQKVIVVAVCVVVLVMLLLLSLWGAHYYRTQKLLSKNPKNPYEESSRDVRSRRPADTEDGMSSCPQPWFVVIKEHQDLKNGGQPVAGEDGQAADGSMQPTSWRQEPQLCGMGTEQGCWIPVSSDKGSCPQVMERSFHMPSYGTQTLEGGVEKPHSLLSANPLWQQRALDPPHQMELTQ
modifications: Pro-epidermal growth factor
In the case of B1, the “cyclin D1 expression” value in assay [1] is “stimulate”. Also, in assay [2] (C-HC11 cells, EGF 10 minutes in the presence of sFRP1), the ERK1/2 phosphorylation result is “able to induce”. In addition, the ErbB1 phosphorylation result in assay [3] is reported as “strong increase”.

B2: sFRP1: secreted Frizzled-related protein-1, binds Wnt preventing it from binding Fz; used as CM from sFRP1-producing HEK293 cells (protein, UniProt Q8N474 32-314, looked up)
Secreted frizzled-related …: SEYDYVSFQSDIGPYQSGRFYTKPPQCVDIPADLRLCHNVGYKKMVLPNLLEHETMAEVKQQASSWVPLLNKNCHAGTQVFLCSLFAPVCLDRPIYPCRWLCEAVRDSCEPVMQFFGFYWPEMLKCDKFPEGDVCIAMTPPNATEASKPQGTTVCPPCDNELKSEAIIEHLCASEFALRMKIKEVKKENGDKKIVPKKKKPLKLGPIKKKDLKKLVLYLKNGADCPCHQLDNLSHHFLIMGRKVKSQYLLTAIHKWDKKNKEFKNFMKKMKNHECPTFQSVFK
For B2, the “Wnt1 and Wnt5a CM-induced increase of phospho-ERK1/2 levels” value in assay [2] (C-HC11, CM from sFRP1-producing 293 cells premixed 1:1 with Wnt-containing CM, 10 min) is given as “prevented”.
